The domain aggregation screens of Martell et al. (2025)

Experiment: soluble fraction after stress (log2 fold change); higher = more stays soluble; pooled small domains, quantitative proteomics
Settings: stress: 50 degC
Method in brief: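 Pooled custom libraries of small protein domains were each held under stress at 50°C. The read-out, high-throughput quantitative proteomics, tracked how much of each protein stayed soluble. This is reported as a base-two log fold change used to indicate aggregation propensity. Higher values mean more protein remains in solution.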

| Sequence | soluble fraction (log2) |
| --- | --- |
| HMSAVIGTATVTTSSGSLNLRESASLYSRVIRTIPRGATVDVLSRDTSWSRVRYAGSEGYVLNQYLTFQT | -0.0809 |
| HMKHVENLSDEKTIQAIQENPYMQYLLGLSKFTEKPVFVPELFVLIRKRLDQDFFNMLTLILAEADG | 0.143 |
| HMEFDTEFVLRQAMHAFMQYGYAKTSMQKLKEATHLHPGSIYAAYGNKKGLFLAATEQYQKDR | -0.0761 |
| HMKTGNIVMVNLGWKGKYYSIKMFFPQVSKPSRKDVQDQIEKIYPGGKLYTFVVSNYEPGEPMLHA | -1.06 |
| HMNINTEMEKVSYSLGVNIASSLKQQGWELDAKSLSDAFVDVFNGNKLLIDEKEASSILQNYQQKIANK | -0.144 |
| HMTVSKLKVINYTIRNGDSLWTISRKFNVTVDKVKEWNGLSDRTLLQPGQKLTLYVDPTIQISH | -0.0925 |
| HMSTKRGEILEFLKDFSARKGYAPSVREIMQAVGLKSTASVHYHLSELHKAGLITVDGTKNRAISLA | -0.149 |
| HMLGARSLNEAVARNLPQILAKYQLIHIAGKNGFNPELQGRGYVQYEYVDTELKDLMALADIVVSR | -1.33 |
| HMDIVEIYVGEEDGERIDSYLAQELNNVSRSYVQGLIKNQLITVNGNHVKPKHIVKEGEHIIVNIPPPKV | 0.24 |
| HMNEKEAEEAAEAQTEVPDVTGMAPAQAKNMLYQAGLSSEYRGEGETVSRQLPPAGETVNRGTKAVLYL | 0.0278 |
| HMSLLLTPREASVWASEYLGKKVTSNNIIYLLNYGKIANHSTDLKENLIDKNELKIYYDSTIKSQKH | -0.216 |
| HMDGLGLGAVILAQRKRQGWTQEDLAARIGVSKGAVSKWETGQSYPDLPLVPRLAALFHITVDELLDYR | -0.662 |
| HMSVKLYPNPTRSVTTFATDVDKWYLYDNQGKLVSEGNTKTIDVTAFPVGIYFVKTIKGNNSTFVKLIV | -1.4 |
| HMDLLESLSAREREVVHLASRGLVNKLIARELGITERTVKAHLSSAFEKLHIKDRVHLALLVNGI | -1.45 |
| HMKGPLKDLGPDPVTGKSILVKDGKFGTYVTDGETNATLRRGDIVELLTLERGMELLAEKRARATQ | 0.151 |
| HMNTYEIIGGDNRARGPVTGEELSQWIREGRASGHTMARVSDGEHWQPLGSFPEFVGPLQGLPW | 0.127 |
| HMDLYIILGLERSATLSDVRRAYRRLARKYHPGINPGDRNSASVFTRVSEAYQVLSDPEQRRRYDSR | -2.81 |
| HMERPPHELLSDREYQTMVMIASGRTLTQIAEEMSLSPKTVSVYRARLLEKMKLKNNAELTHYALKHKLV | 0.0152 |
| HMIINLGELLKMLEVNKYQDAMDALDSLIEEGGSLEKIESLHEIRQHTHAMNFREAERLLSILIESEGA | -0.746 |

| Sequence | soluble fraction (log2) |
| --- | --- |
| HMVMSTDAELILEYLAKHQGEMEITDKSSPELIMDTFNMSKGAFKRALGSLYKSKTVVIESTKVLLNT | -1.44 |
| HMSIAKIIGDRIRAYRNQKGWSQEYLAEKADVHHTYIGQLERGEKNATIESISKIAGALGVSLSRLFEN | -0.0998 |
| HMQKIENYDQFVQAFKRLSGLDLKLYKENQMKRRINNFINNHGFKENYDQFFQAITGNKELYNAFFKHLTI | -0.172 |
| HMQRDELRYDQFLTALQNKEFTQLNVRFDDYTYLVTGTFQSGRPFSTRGPVSEEFIRLIESSGVQVTWLPM | -0.577 |
| HMTSPQGIERFLASGVIEGVGKAMAARIVAVFGGQTLEIIEKQPHRLREVRGIGVKTAEKIHASYQEKA | -0.81 |
| HMRNTETMKEIQAFVEDYFFEYHQSPSMQKVADAIGTSKSTAYYYVMEMARNGMLHYDGKTIETPHTQKS | -1.09 |
| HMGPAYEKIVANGQTFYRYNVKKGEGLMAVSRTFNVSVNDILKYNPSAASGLKDGQELLIPVIDDA | 0.164 |
| HMPNIHVVFAEEWTDRRLDKVLSEYFDGYSRSFIKKLFDDGLILVNSKAVKPSYKVRAGDMIDISVPDPV | -0.646 |
| HMQADKYKSYTATDFLKDKDFLRWQLFNGEEDMLFWGRVIEEYPALRSRVEEGIVLYKDNIR | -0.981 |
| HMGRSARVQQAVHQAVRALLEENDGERSALSVPLVAERAGVNSSTIYRRWGDLPRLLAAVASN | -0.481 |
| HMQQIEIEEPITVKNLSAVAGLKASEIIAKLMKLGVMSTINQVMERQHAEEIAGEYGFELVVK | 0.096 |
| HMSEGEMSQWIIAQAKQQGGGFQPDAARLLGSYVGNNTLRARQEIDKLLTYVGPSRVVTPEDVVLLTA | -0.0143 |
| HMKETIIPELLQNELDKNSELNDKFNTFSPYKQREFIEYIITAKQEKTQISRLQKVILMILEGRGLNN | -0.204 |
| HMRPDDPYLVIGASREMGDEELKRHYRRLVAETHPDRGIARGLPAEAIAIATRRLAAINAAWDAIERERGL | 0.035 |
| HMNKTVKIPNVSNLSREDAESVLKENGISVNSEVKQIESDTIEKGKVVKTDPSIGTSVKKGRSITIYVSSG | 0.0637 |
| HMKERVSWDERLERFAKHITENESLPYPSSKEYAWFEENKALYDAGELEPVRAQSFAFLLKIMRRMNL | -0.491 |
| HMAAMDMFVKLDALDAELTEQLKALPAEPDDARVERGLALLTDYDHRIKALLTEIFGGENDFDKVL | -2.4 |
| HMPDRQKDIQNWQQIAETLLNMLDKYVAALETGKTGLAEAYKAIFAETLRRLDDRLDPEQFLP | -1.54 |
